What is called Km is the concentration of substrate that gives half-maximal velocity.

This note sets out measurements from article PMC9311411, “A Morphing [4Fe‐3S‐nO]‐Cluster within a Carbon Monoxide Dehydrogenase Scaffold” (Angewandte Chemie (International Ed. in English), 2022).

Substrate in this data set: NO
Briefly: reoxidation of reduced methyl viologen. Conditions: 0-100 mM NH2OH; reduced methyl viologen as artificial electron donor; two-electron reduction to ammonia and water. Format: biochemical, Carboxydothermus hydrogenoformans. The source says: reoxidation of reduced methyl viologen on CooS‐V Ch | hyperbolic dependency on the NH2OH concentration (Figure S2‐C)

B1: CooS‐V Ch (Carboxydothermus hydrogenoformans Z-2901) (protein)
chain: MATKTSIHPSVNELYQRLAEDQLSNCFDRFDPQEKIRCNYCELGVSCQLCSNGPCRINEKVGATLGVCGINADGMAMRYMLLRNVMGTSTYTYHAYEAYKTLKMTALGNTPFTITDKDKLYQMAKDLELNTEGKPEDVAVRLSDFLIWELYRDYDEPGKMIEVYAPLKRKEVWRKLGIYPAGPLHELKDAAASCLTNVDGDYVSLATKGLRLGLSCIYGAQIGLELVQDILFGTGMPHEMDVDLGIFDADYINIVFNGHEPFVGVALILAAKEAVNQDKAKAAGAKSLRIYGSIESGQEVVQRFQKDEVFRGLTGNWLTIEPMLATGAVDVLAMDMNCSPPNLGPLAEKYGATLVSVSRLVRFPGIHHFLDYKPSEVREIAQKIIDIAVDSFKNKRHGKITPKIPANIQKAITGFTPEAILKALGGSINPLIEVIKAGKIKGAVGLINCTTLKNGPQDYVTVNLAKELIKRDILILSGGCGNHALEVAGLCNLDAINLAGPGLSEVCRNLNIPPVLSFGTCTDTGRISLVVTALANALNVDTADLPVAVTAPMYMEQKATIDALFALAYGLYTHVAPDPPVMGAPNLVKLLTRDLPSITGGRIAVGSDPVKVADDILAHINDRRAKLGI
notes: full length, 629 residues; homodimer, apparent 118 kDa; [2Fe-2S], [4Fe-4S] and Fe/S/O hybrid cluster, no Ni
For the protein B1, the Michaelis-Menten constant (Km) amounted to 7.6 ± 2.0 mM and the kcat is on record as 0.13 s–1.
